Measurements: article PMC3431356, “Staphylococcus aureus Methicillin-Resistance Factor fmtA Is Regulated by the Global Regulator SarA” (PLoS ONE, 2012)

Target: the molecule itself
Experiment: SEC; Superdex 75 (10/300) column, 50 mM sodium phosphate pH 7.0, 0.4 mL/min, calibrated with four standards (LMW calibration kit); mass estimated from elution

B1: staphylococcal accessory regulator A (SarA) (natural protein)
chain: MAITKINDCFELLSMVTYADKLKSLIKKEFSISFEEFAVLTYISENKEKEYYLKDIINHLNYKQPQVVKAVKILSQEDYFDKKRNEHDERTVLILVNAQQRKKIESLLSRVNKRITEANNEIEL
notes: SarA, Staphylococcus aureus strain MRSA252; the 375 bp sarA coding region cloned in pET22b with the pelB leader removed; a 124-residue protein; the entry of strain MRSA252 is not recalled; No tag is described; The reverse primer appears to carry stop codons before the HindIII site, so the His tag of pET22b is probably not on the protein (surmise); Observed mass 14,635 D, theoretical mass 14,586 …
  stoichiometry N: 2
